Experimental data taken from patent US20260234276A1 (DOMAIN THERAPEUTICS, published 2026).
Several values for one entry are separate records, joined by “and”; a condition that tells them apart may be missing. Equal values may be shown once.

B1: 3-65 (Fab, V domains shown)
VH: QVTLKESGGGVVQPGRSLRLSCAASEFTFRNYAMHWVRQAPGKGLEWVAVISYDGSNKYYADSVKGRFTISRDISKNMVFLQMNSLRADDTAVYYCARGTFLAYWGQGTLVTVSS
VL: EIVLTQSPLSLPVTLGQPASISCRSSQSLVHSDGNTYLSWFQQRPGQSPRRLIYKVSNRDSGVPDRFSGSGSGTDFTLKISRVEAEDVGVYYCMQGIHLPLTFGGGTKLEIKR
notes: soluble Fab from phage display library huFabL-4, Flag tag
B2: 3-64 (Fab, V domains shown)
VH: QLQLQESGGGLVQPGGSLRLSCAASGFTFSSYAMSWVRQAPGKGLEWVSAISGSGGSTYYADSVKGRFTISRDNSKNTLYLQMNSLRAEDTAVYYCASGHSSHAFEIWGQGTTVTVSS
VL: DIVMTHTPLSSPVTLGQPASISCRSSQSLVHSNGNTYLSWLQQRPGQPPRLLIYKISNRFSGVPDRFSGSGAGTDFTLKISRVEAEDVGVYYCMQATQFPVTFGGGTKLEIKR
notes: as for B1
B3: Ref #4 (antibody, human IgG1, V domains shown)
VH: EVQLVESGGGLVQPGGSLKLSCAASGFTFNTYAMNWVRQASGKGLEWVARIRSKANNYATYYADSVKDRFTISRDDSKNTLYLQMNNLKTEDTAVYYCVRDRSRGEDYAMDYWGQGTLVTVSS
VL: DIVMTQSPLSLPVTPGEPASISCRSSKSLLHSNANTYLYWFLQKPGQSPQLLIYRMSNLASGVPDRFSGSGSGTAFTLKISRVEAEDVGVYYCMQHLEYPFTFGQGTKLEIK
B4: 3-66 (Fab, V domains shown)
VH: QVQLVESGGGVVQPGRSLRLSCAASGFPFRTYGMHWVRQAPGKGLEWVSSISSSSSYIYYADSVKGRFTISRDNAKNSLELQMNSLRAEDTAVYYCARTTRGAFDIWGKGTMVTVSS
VL: LSSELTQDPAVSVALGQTVRITCQGDSLRSYYASWYQQKPGQAPLLVIYGRNNRPSGIPDRFSGSSSGNTASLTITGAQAEDEADYYCNSRDSSGVPFGTGTQLTVLS
notes: as for B1
B5: 3-33 (antibody, V domains shown)
VH: EVQLQQSGPELVKPGASVKISCKTSGYTFTEYTIHWVKQSHGESLEWVGGINPNNGNTRYDQKFKGKATLTIDKSSSPAYMELRSLTSEDSAVYYCARVARSSGSGPYAMDYWGQGTSVTVSS
VL: DVVMTQTPLSLPVSLGDQASISCRCTQSLLHTNGDTYLHWYLQKPGQSPKLLIYKVSNRFSGVPDRFSGSGSGTDFTLKISRVEAEDLGVYFCSQSTHVPYTFGGGTKLEIK
B6: Ref #3 (antibody, human IgG1, V domains shown)
VH: QVQLVQSGAEVKKPGASVKVSCKASGYTFTSYYMHWVRQAPGQGLEWMGIINPSGGSTSYAQKFQGRVTMTRDTSTSTVYMELSSLRSEDTAVYYCARAVRNRFRFDYWGQGTLVTVSS
VL: QSALTQPASVSGSPGQSITISCTGTSSDVGSYNLVSWYQQHPGKAPKLMIYEVSKRPSGVSNRFSGSKSGNTASLTISGLQAEDEADYYCSSYAGSSTFVVFGGGTKLTVL
B7: 3-63 (Fab, V domains shown)
VH: QVQLQESGGGVVQPGRSLRLSCAASGFTFSSYGMHWVRQAPGKGLEWVAVISYDGSNKYYADSVKGRFTISRDNSKNTLYLQMNSLRAEDTAVYYCARDRPGGMDVWGKGTMVTVSS
VL: DVVMTQSPLSLPVTLGQPASISCRSSQSLVHSNGNTYLTWFQQRPGQSPRRLIYKVSNRDSGVPDRFSGSGSGTDFTLKISRVEAEDVGVYYCMQGTRWYTFGQGTKLEIKR
notes: as for B1
B8: 3-50 (antibody, V domains shown)
VH: EVQLQQSGPELVKPGASVKISCKASVYSFTGSYMHWVKQSHVKSLEWIGRINPYNGATSYNQNFKDKASLTVDKSSSTAYMELHSLTSEDSAVYYCATTLLRLLDYWGQGTTLTVSS
VL: DIVMTQAAFSNPVTLGTSASISCRSSKSLLHSNGITYLYWYLQKPGQSPQLLIYQMSNLASGVPDRFSSSGSGTDFTLRISRVEAEDVGVYYCAQNLELPWTFGGGTKLEIK
B9: 3-53 (antibody, V domains shown)
VH: QVQVQQSGAELARPGASVKMSCKASGYTFTTYAMHWVKQRPGQGLEWIGHINPSSGYSNYNQKFKDKATLTADKSSSTAYMQLSSLTSEDSAVYYCARSEVRRGYFDVWGAGTTVTVSS
VL: DIQMTQTTSSLSASLGDRVTISCRTSQDIRNYLNWYQQKPDGTVKLLISYTSRLHSGVPSRFSGSGSGTDYSLTISNLEQEDFATYFCQQGNTLPPTFGGGTRVEIK

Key:
[1] = target: T1, biotinylated CCR8 peptide (human, N-terminal biotin); assay: ELISA, soluble Fab on biotinylated CCR8 peptide captured on streptavidin
T1 construct: first 34 residues of human CCR8 plus a C-terminal K; also called biotinylated target peptide
Protocol: (§1) The wells of a microtiter plate were coated with 200 ng streptavidin protein in 100 μL Coating Buffer (0.1 M NaHCO₃, pH 8.6), and then incubated overnight at 4° C. For negative control, the wells were coated with PBS to determine non-specific binding. After shaking out the coating solution, the wells were washed three times with washing buffer (0.1% Tween 20-PBS). To prevent non-specific binding, 200 μL Blocking Buffer (3% BSA-PBS) was adding and incubated for 2 h at 37° C. After shaking out the blocking buffer, the wells were incubated with 50 ng biotinylated target peptide (SEQ ID NO: 420; see Example 10) in 100 μL Blocking Buffer for 1 h at 37° C. The control well was incubated with only 100 μL Blocking Buffer for 1 h at 37° C. After shaking out the biotinylated target peptide or buffer solution, the wells were washed 3 times with the washing buffer (0.1% Tween 20-PBS). Then 100 μL supernatant containing soluble Fab were added and incubated for 2 h at 37° C. Following three washes with washing buffer (0.1% Tween 20-PBS) for 3 times, 100 μL/well HRP conjugate of mouse anti-Flag tag mAb (Sigma A8592, 1:5000) diluted in Blocking Buffer were added and incubated for 1 h at 37° C. After washings, 3,3′,5,5′-tetramethylbenzidine (TMB) (Sigma) were added for 5 to 30 min at room temperature. The reaction was stopped by adding 50 μL/well of 1 M H₂SO₄.

[2] = target: T2, streptavidin (UniProt P22629 37-163, limits assumed); assay: ELISA, soluble Fab on streptavidin-coated control well without peptide
T2 construct: control well without peptide
T2 sequence (P22629 37-163 limits assumed): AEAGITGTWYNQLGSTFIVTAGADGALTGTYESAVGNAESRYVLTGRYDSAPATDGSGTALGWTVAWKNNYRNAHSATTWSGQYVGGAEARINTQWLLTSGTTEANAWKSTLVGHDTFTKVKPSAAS
Protocol: as §1

[3] = target: CCR8 SNAP-tag (human, UniProt P51685 1-355, SNAP-tag labelled with Lumi4-Terbium); assay: cell-based or functional assay
[4] = target: T3, human CCR8 (human, UniProt P51685 1-355); assay: cell-based or functional assay
[5] = target: T3, human CCR8; assay: flow cytometry, hCCR8 transfected CHOK1 cells
Protocol: Briefly, 1·10⁵ cells per well in a 96 well plate were incubated with a dilution of unconjugated anti-CCR8 mAb at 10 μg/mL then diluted at 1/3.33, 4 dilution points (during 30 min at 4° C.). […] To determine EC50 value, 8 concentrations of anti-CCR8 mAb were tested. Unbound antibodies were washed away with PBS (Invitrogen by Thermofisher Scientific, Illkirch-Graffenstaden, France) supplemented by 2% Fetal Bovine Serum (Invitrogen by Thermofisher Scientific, Illkirch-Graffenstaden, France) and 2 mM EDTA (Invitrogen by Thermofisher Scientific, Illkirch-Graffenstaden, France). Subsequently, cells are centrifuged (5 min at 400 g) and bound antibody is detected with F(ab′)₂-Goat anti-Mouse IgG (H+L) Cross-Adsorbed Secondary Antibody, Alexa Fluor 488 (dilution 1/500) (Invitrogen by Thermofisher Scientific, Illkirch-Graffenstaden, France) or with F(ab′)₂-Goat anti-Human IgG Fc Secondary Antibody, PE (Invitrogen by Thermofisher Scientific, Illkirch-Graffenstaden, France) (dilution 1/1000) at 4° C. for 30 min. Detection reagent is washed away and cells are centrifuged (5 min at 400 g) and resuspended in 30 μL PBS. Bound detection antibody is quantified on a MacsQuant16 (Miltenyi, Gladbach, Germany) (B1 or B2 channel, 5000 events per acquisition).

[6] = target: pm3 (human, sulfated tyrosine at Y17); assay: ELISA on coated peptide [cont.]
pm3 (human, sulfated tyrosine at Y17), sequence (peptide, as listed by the source): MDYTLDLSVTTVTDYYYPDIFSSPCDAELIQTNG
Protocol: (§2) The specific binding properties of antibodies were evaluated by ELISA with coated CCR8 related peptides (500 ng/mL) in carbonate/bicarbonate buffer. Different peptides were used as described in Table 1 (see Example 1). Each anti-CCR8 mAb was tested at 1 μg/mL then diluted at 1/10. After an incubation at room temperature during 90 min, unbound mAbs were removed by washings. […] After washings, 3,3′,5,5′-tetramethylbenzidine (TMB) (Interchim, Montlugon, France) was added for 15 min. Then the optical density (OD) was determined by using a multiplate reader (Tecan, Lyon, France) and correlated with mAb reactivity on the panel of coated peptides.

[7] = target: pm5 (human, sulfated tyrosines at Y15 and Y17); assay: ELISA on coated peptide [cont.]
pm5 (human, sulfated tyrosines at Y15 and Y17), sequence (peptide, as listed by the source): as above
Protocol: as §2

[8] = target: pm6 (human, sulfated tyrosines at Y16 and Y17); assay: ELISA on coated peptide [cont.]
pm6 (human, sulfated tyrosines at Y16 and Y17), sequence (peptide, as listed by the source): as above
Protocol: as §2

[9] = target: pm8 (human, sulfated tyrosines at Y15, Y16 and Y17); assay: ELISA on coated peptide [cont.]
pm8 (human, sulfated tyrosines at Y15, Y16 and Y17), sequence (peptide, as listed by the source): as above
Protocol: as §2

[10] = target: T3, human CCR8; assay: cell-based or functional assay; remark: listed apart in the source
[11] = target: T3, human CCR8; assay: cell-based or functional assay; remark: listed apart in the source

Row | Binder | Optical Density [1] | Optical Density [2] | hCCL1 (100 nM) residual response, Protocol #2, mAb 0.08 µg/mL [4] | hCCL1 (100 nM) residual response, Protocol #2, mAb 0.4 µg/mL [4] | hCCL1 (100 nM) residual response, Protocol #2, mAb 10 µg/mL [4] | hCCL1 (100 nM) residual response, Protocol #3, mAb 0.05 µg/mL [4] | hCCL1 (100 nM) residual response, Protocol #3, mAb 0.5 µg/mL [4] | hCCL1 (100 nM) residual response, Protocol #3, mAb 5 µg/mL [4] | % positive cells [5] | MFI fold change to isotype ctrl [5] | Top plateau value (% of hCCL1 100 nM) with 5 µg/mL mAb, Protocol #3 [10] | further results
1 | B1 | 3.29 OD450 | 0.07 OD450 |  |  |  |  |  |  |  |  |  | 
2 | B2 | 3.64 OD450 | 0.07 OD450 |  |  |  |  |  |  |  |  |  | 
3 | B3 |  |  |  |  |  |  |  |  |  |  |  | % of internalization at 1 µg/ml mAb (HTRF) [3]: 95%; % of internalization at 10 µg/ml mAb (HTRF) [3]: 103%
4 | B4 | 2.56 OD450 | 0.1 OD450 |  |  |  |  |  |  |  |  |  | 
5 | B5 |  |  | 104% | 46% | 28% | 80% | 57% | 45% | 56.2% | 4.78 fold | 855% | binding result [6]: binds; binding result [7]: binds; binding result [8]: binds; binding result [9]: binds
6 | B6 |  |  |  |  |  |  |  |  |  |  |  | % of internalization at 1 µg/ml mAb (HTRF) [3]: 100%; % of internalization at 10 µg/ml mAb (HTRF) [3]: 90%
7 | B7 | 3.66 OD450 | 0.09 OD450 |  |  |  |  |  |  |  |  |  | 
8 | B8 |  |  | 97% | 96% | 84% | 96% | 81% | 73% | 34.7% | 2.34 fold | 292% | IC50 (Gi2 BRET, pH 6.5) [11]: 0.162 µg/ml and 1.08 nM; IC50 (Gi2 BRET, pH 7.4) [11]: 0.152 µg/ml and 1.01 nM
9 | B9 |  |  | 52% | 68% | 53% | 76% | 62% | 59% | 77% | 9.2 fold | 948% | binding result [6]: binds; binding result [7]: binds; binding result [8]: binds; binding result [9]: binds; IC50 (Gi2 BRET, pH 6.5) [11]: 0.012 µg/ml and 0.08 nM; IC50 (Gi2 BRET, pH 7.4) [11]: 0.015 µg/ml and 0.097 nM
